Reference: publication PMC2572732 (2008)
Non-standard residues stand in square brackets, D forms with d. No end group written: not given here. pY = N[C@@H](Cc1ccc(OP(=O)(O)O)cc1)C(=O)O

What was measured:
[1] = target: isolated Fes SH2 domain, G463V (mutant G/V) (human, UniProt P07332-1 460-549, G463V (mutant G/V)); test: FP
[2] = target: isolated Fes SH2 domain, E469K/E472K (mutant EE/KK) (human, UniProt P07332-1 460-549, E469K | E472K); test: FP
[3] = target: isolated Fes SH2 domain, wild type (human, UniProt P07332-1 460-549); test: FP
Sequence of isolated Fes SH2 domain, wild type (P07332 460-549): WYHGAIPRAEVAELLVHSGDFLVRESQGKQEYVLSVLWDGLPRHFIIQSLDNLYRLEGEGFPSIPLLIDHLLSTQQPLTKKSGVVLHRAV

[4] = target: human Fes SH2-kinase unit (residues I448 to the C terminus), unphosphorylated (human, UniProt P07332-1 448-822); test: FP; 1 mM ATP and 5 mM MgCl2
Sequence of human Fes SH2-kinase unit (residues I448 to the C terminus), unphosphorylated (P07332 448-822): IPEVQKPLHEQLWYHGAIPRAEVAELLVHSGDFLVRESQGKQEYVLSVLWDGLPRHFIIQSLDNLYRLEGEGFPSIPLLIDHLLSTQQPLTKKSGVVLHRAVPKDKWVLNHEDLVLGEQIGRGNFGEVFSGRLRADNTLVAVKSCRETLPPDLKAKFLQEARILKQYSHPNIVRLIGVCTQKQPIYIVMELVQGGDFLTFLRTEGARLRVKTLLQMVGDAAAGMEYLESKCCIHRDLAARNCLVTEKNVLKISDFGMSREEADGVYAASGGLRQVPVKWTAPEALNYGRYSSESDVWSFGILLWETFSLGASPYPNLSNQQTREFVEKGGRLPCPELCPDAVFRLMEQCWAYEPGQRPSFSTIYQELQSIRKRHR

Measured: Kd

Sequence of isolated Fes SH2 domain, G463V (mutant G/V) (P07332 460-549 G463V): as the sequence (P07332 460-549) above, with G4V counted along it
Sequence of isolated Fes SH2 domain, E469K/E472K (mutant EE/KK) (P07332 460-549 E469K/E472K): as the sequence (P07332 460-549) above, with E10K, E13K counted along it

V[pY]EPVSY [pTyr-containing peptide from ezrin (VpYEPVSY)]
~400 nM: all assays above
